One test has as its system GST-ZZ122-175^N132D. Put plainly: GST-ZZ122-175^N132D pulldown from HeLa lysates (MG132 plus TG). The note with it: HeLa lysate, immunoblot. It counts as binding, human. An excerpt: Using these lysates and purified GST tagged ZZ122-175^N132D (Supplementary Fig. 4A) immobilized on glutathione resin, we performed pulldown assays. […] In addition to pulling down R-BiP and R-CRT, GST-ZZ122-175^N132D was able to capture polyubiquitinated proteins, which were also disrupted by the D129A mutation and RA dipeptide competition (Supplementary Fig. 4B). This was expected because arginylated proteins are known to be ubiquitinated by E3 ligases containing a UBR box leading to their proteasomal degradation.
Fig. 4 ZZ122-175 ^N132D is capable of capturing known arginylated proteins in cells. a Western blot analysis to visualize arginylated BiP and CRT. […] N-terminally arginylated BiP and CRT were detected by immunoblotting using anti R-BiP and R-CRT antibodies. b GST pulldown assays to test the ability of wild type (WT) and N132D GST-ZZ in capturing cellular R-BiP and R-CRT. […] Pulled down R-BiP and R-CRT were detected using anti R-BiP and R-CRT antibodies. c Schematic drawing illustrating R-catcher. […] R-catcher bound arginylated proteins were detected by immunoblotting using anti-Myc or Flag antibody. e R-catcher pulldown assay to capture R-BiP and R-CRT induced in HeLa cells stimulated with MG132 plus TG in the absence or presence of 20 mM dipeptides TEXT PRINTED IN THE PICTURE: (C) R-catcher: ~ 9 kDa

Another test has as its system R-catcher. The test is described as follows: Small-scale R-catcher pulldown of known arginylated proteins. It counts as binding, human. The note with it: HeLa, MG132 plus TG, Fig. 4e. The protocol: For small-scale R-catcher pull-down assays, 300 µg of purified R-catcher was conjugated with 120 µl of Strep-Tactin sepharose resin by incubating overnight at 4 °C. To test R-catcher’s ability to capture known arginylated proteins, such as R-BiP, R-PDI, R-nsP4 and R-RGS4, plasmids encoding Ub-X-(BiP, PDI and nsP4) or MX-RGS4 (X = Arg or Val) were transiently transfected into HEK293 cells. After 24 h, cells were treated with 10 µM MG132 and 100 nM thapsigargin for another 24 h. Cells were harvested and lysed in hypotonic buffer and 300 µg total protein was incubate with 25 µl R-catcher-sepharose resin in binding buffer (20 mM HEPES pH 7.9, 0.05% Tween 20, 10% glycerol, 0.2 M KCl, protease inhibitor and phosphatase inhibitor) for 3 h with gentle rotation at 4 °C. After three washes with binding buffer, bound proteins were dissociated with 2 × SDS sample buffer and boiling at 100 °C and subjected to immunoblotting using anti-myc or flag antibodies.

Test [1] deals with HeLa cell extracts stimulated with MG132 plus TG. The test is described as follows: Large-scale R-catcher pulldown coupled to silver staining and LC-MS/MS. Also on record: species or system human. The following applies: LC-MS/MS working list. The protocol:
For large-scale R-catcher pulldown assays, HeLa cells were treated with 5 µM MG132 and 100 nM thapsigargin for 24 h. Cells were lysed in hypotonic buffer and 10 mg total was incubated with 750 µl R-catcher-sepharose beads for 3 h at 4 °C after pre-clearing with D129A mutant R-catcher-sepharose beads for 3 h at 4 °C. After three washes with binding buffer, bound proteins were eluted with binding buffer containing 20 mM D-biotin. To remove R-catcher, the eluent was dialyzed using 20 kDa cut-off dialysis membrane in binding buffer containing 3.5 M MgCl2 overnight followed by another overnight dialysis in distilled-deionized water. The dialyzed eluent was lyophilized overnight and dried powder was dissolved in 100 µl LC/MS solubilizer for silver staining and mass spectrometry analysis.
Protein samples solubilized in Invitrosol LC/MS solubilizer (Invitrogen) as following by manufacturer protocol. For removal of incompatible buffer components, protein samples filtrate with 10 K MW ultrafilter for complete digestion. […]
Peptides were analyzed using a LC–MS/MS system consisting of an Easy nLC 1000 (Thermo Fisher scientific) and an Orbitrap Fusion Lumos mass spectrometer (Thermo Fisher Scientific) equipped with a nano-electrospray source (EASY-Spray Sources, Thermo Fisher Scientific). […]
MS/MS spectra were analyzed using the following software analysis protocols with the Uniprot human DB (2019). […]

B1: R-CRT: Nt-arginylated CRT (protein)
chain: REPAVYFKEQFLDGDGWTSRWIESKHKSDFGKFVLSSGKFYGDEEKDKGLQTSQDARFYALSASFEPFSNKGQTLVVQFTVKHEQNIDCGGGYVKLFPNSLDQTDMHGDSEYNIMFGPDICGPGTKKVHVIFNYKGKNVLINKDIRCKDDEFTHLYTLIVRPDNTYEVKIDNSQVESGSLEDDWDFLPPKKIKDPDASKPEDWDERAKIDDPTDSKPEDWDKPEHIPDPDAKKPEDWDEEMDGEWEPPVIQNPEYKGEWKPRQIDNPDYKGTWIHPEIDNPEYSPDPSIYAYDNFGVLGLDLWQVKSGTIFDNFLITNDEAYAEEFGNETWGVTKAAEKQMKDKQDEEQRLKEEEEDKKRKEEEEAEDKEDDEDKDEDEEDEEDKEEDEEEDVPGQAKDEL
As for B1, the “pulldown by GST-ZZ122-175^N132D” value in the test on GST-ZZ122-175^N132D is listed as “efficiently pull down”.

B2: CRT: ER chaperone calreticulin, arginylated (protein)
chain: B1 chain
As for B2, the “pulldown by R-catcher, endogenous” value in the test on R-catcher is on record as “could pulldown”. Also, in test [1], the “presence in R-catcher working list” value was “among the known arginylated proteins”.

(Values after article PMC8038991, “R-catcher, a potent molecular tool to unveil the arginylome” (Cellular and Molecular Life Sciences: CMLS, 2021).)
